# Measured values from PMC3439491.
# pKd: −log10 of the molar value.
# Target: MA-MADS5 full length (A) (Musa acuminata (AAA group, Cavendish subgroup, cv. Giant governor)) (UniProt E9NW24)
# Test: EMSA saturation
# Settings: EMSA with 2 ug recombinant protein or 15 ug nuclear extract, buffer by reference to earlier work; circularization pre-incubation: 60 mM KCl, 8 mM HEPES pH 7.9 …
# Sequence of MA-MADS5 full length (A) (Musa acuminata (AAA group, Cavendish subgroup, cv. Giant governor)) (E9NW24 entry or part of it): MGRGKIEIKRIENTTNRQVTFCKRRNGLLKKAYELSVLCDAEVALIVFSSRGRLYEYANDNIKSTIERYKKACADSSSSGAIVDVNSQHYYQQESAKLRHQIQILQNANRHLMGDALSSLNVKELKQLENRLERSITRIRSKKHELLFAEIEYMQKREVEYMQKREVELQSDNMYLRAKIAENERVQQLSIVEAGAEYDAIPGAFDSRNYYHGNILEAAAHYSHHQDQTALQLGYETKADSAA
substance,measurement,value
"c-fos SRE, pAS76 EcoRV fragment",pKd,7.97
